Common to all, as to experiment: purified protein
What all share (assay type): biochemical, Bacteroides thetaiotaomicron
What all share (conditions): 5 mM NAD+, 10 mM MOPS, 37 °C, 0.2 nM enzyme

Substrate in series [1]: C[C@H](CCC(=O)NCC(=O)O)[C@H]1CC[C@H]2[C@@H]3[C@H](O)C[C@@H]4C[C@H](O)CC[C@]4(C)[C@H]3CC[C@]12C
Substrate in series [2]: C[C@H](CCC(=O)NCCS(=O)(=O)O)[C@H]1CC[C@H]2[C@@H]3[C@H](O)C[C@@H]4C[C@H](O)CC[C@]4(C)[C@H]3CC[C@]12C
Substrate in series [3]: C[C@H](CCC(=O)O)[C@H]1CC[C@H]2[C@@H]3[C@H](O)C[C@@H]4C[C@H](O)CC[C@]4(C)[C@H]3CC[C@]12C
Substrate in series [4]: C[C@H](CCC(=O)O)[C@H]1CC[C@H]2[C@@H]3[C@H](O)C[C@@H]4C[C@H](O)CC[C@]4(C)[C@H]3C[C@H](O)[C@]12C

What is called Km is the concentration of substrate that gives half-maximal velocity. By kcat is commonly meant the maximal rate divided by the concentration of active sites.

B1: HSDHa (BT_1911), 7α-hydroxysteroid dehydrogenase (Bacteroides thetaiotaomicron VPI-5482) (protein)
chain: MKRFENKVVVITGAAGGIGEATTRRIVSEGGKVVIADLSQERADKLAAELTQAGADVRPIYFSATELQSCKELVDFAMKEYGQIDVLINNVGGTDPKRDLNIEKLDIDYFDEVFHLNLCCTMYLSQQVIPIMTTHGGGNIVNVASISGLTADANGTLYGASKAGVINLTKYIATQMGKKNIRCNAVAPGLVLTPAALDNLNEEVRNIFLGQCATPYLGEPEDVAATIAFLASNDARYITGQTIVVDGGLTIHNPTVELS
notes: full-length codon-optimized gene, pETite C-His, C-terminal hexahistidine tag, E. coli Rosetta (DE3) pLysS, cobalt resin purified
On to B1, for which the Km is 342.2 ± 104.1 µM in series [1], 301.2 ± 60.4 µM in series [2], 203.4 ± 24.3 µM in series [3] and 649.2 ± 167.6 µM in series [4]. Besides, the kcat in series [1] was 4090 ± 292 s⁻¹; in series [2] it was 4520 ± 681 s⁻¹; in series [3], 4580 ± 375 s⁻¹; in series [4] it was 4070 ± 195 s⁻¹.

For the origin of these results see article PMC10783122, “Loss of Bacteroides thetaiotaomicron bile acid-altering enzymes impacts bacterial fitness and the global metabolic transcriptome” (Microbiology Spectrum, 2023).
